From paper doi:10.1101/2025.11.26.690709, “Domain-specific decoupling of co-chaperone and ligase functions in STUB1 underlies biochemical and clinical heterogeneity in SCA48” (bioRxiv, 2025)

Target: the molecule itself
Assay: mass photometry; Refeyn OneMP; CHIP at 50 nM final in 20 mM HEPES pH 8.0, 200 mM NaCl; self-association of CHIP (dimer, tetramer, hexamer, octamer, high MW)

B1: CHIP R225*, recombinant (natural protein, human, UniProt Q9UNE7-1 1-303, looked up)
chain: MKGKEEKEGGARLGAGGGSPEKSPSAQELKEQGNRLFVGRKYPEAAACYGRAITRNPLVAVYYTNRALCYLKMQQHEQALADCRRALELDGQSVKAHFFLGQCQLEMESYDEAIANLQRAYSLAKEQRLNFGDDIPSALRIAKKKRWNSIEERRIHQESELHSYLSRLIAAERERELEECQRNHEGDEDDSHVRAQQACIEAKHDKYMADMDELFSQVDEKRKK
B1 was tested, and the “stoichiometry N” value was 2.

B2: CHIP P228S, recombinant, C-terminal His tag (natural protein, human, UniProt Q9UNE7-1 1-303, looked up)
chain: MKGKEEKEGGARLGAGGGSPEKSPSAQELKEQGNRLFVGRKYPEAAACYGRAITRNPLVAVYYTNRALCYLKMQQHEQALADCRRALELDGQSVKAHFFLGQCQLEMESYDEAIANLQRAYSLAKEQRLNFGDDIPSALRIAKKKRWNSIEERRIHQESELHSYLSRLIAAERERELEECQRNHEGDEDDSHVRAQQACIEAKHDKYMADMDELFSQVDEKRKKRDISDYLCGKISFELMREPCITPSGITYDRKDIEEHLQRVGHFDPVTRSPLTQEQLIPNLAMKEVIDAFISENGWVEDY
notes: CHIP (STUB1), SCA48-associated U-box mutation P228S
B2: binds.
